One assay deals with HLA-A*11:01. Briefly: IEDB peptide-MHC binding, purified MHC/direct/fluorescence; filed as Kd, often an IC50 or EC50 that approximates it; ≥ and ≤ were set here for values at or beyond the usual limits of such assays.
For assay [1], the target named is HLA-A*26:01. The description is as above.
The target of a further assay is HLA-A*30:01. The description is as above.
For another assay, the target named is HLA-B*07:02. The assay is described as above.
In assay [2] the target is HLA-B*15:01. Described as above.
In assay [3] the target is HLA-B*08:01. The description is as above.
The target in assay [4] is HLA-A*69:01. The description is as above.
The target in the next assay is HLA-A*01:01. The assay is described as above.
For another assay, the target named is HLA-B*58:01. Described as above.
Another assay concerns the target HLA-B*40:01. Described as above.
The target of another assay is HLA-B*27:05. The description is as above.
Assay [5] deals with HLA-A*02:01. The description is as above.
In a further assay the target is HLA-A*31:01. The description is as above. The conditions noted are these: source organism: Pseudomonas aeruginosa.
The target of assay [6] is HLA-A*03:01. The assay is described as above.
The target of assay [7] is HLA-A*26:01. Briefly: IEDB peptide-MHC binding, purified MHC/competitive/fluorescence; filed as Kd, often an IC50 or EC50 that approximates it; ≥ and ≤ were set here for values at or beyond the usual limits of such assays. The conditions noted are these: source organism: Vibrio antiquarius.
Assay [8] has as its target HLA-B*57:01. The description is as above. The note with it: source organism: Vibrio antiquarius.
A further assay concerns the target HLA-A*02:03. The description is as above. The note with it: source organism: Vibrio antiquarius.
The target in assay [9] is HLA-B*15:01. The description is as above. The note with it: source organism: Vibrio antiquarius.
In a further assay the target is HLA-A*02:19. The assay is described as above. The note with it: source organism: Vibrio antiquarius.
Another assay addresses HLA-A*68:02. The assay is described as above. The note with it: source organism: Vibrio antiquarius.
In assay [10] the target is HLA-A*69:01. The description is as above. The note with it: source organism: Vibrio antiquarius.
For a further assay, the target named is HLA-A*02:12. The description is as above. The note with it: source organism: Vibrio antiquarius.
The next assay concerns the target HLA-B*18:01. Described as above. The note with it: source organism: Vibrio antiquarius.
Assay [11] concerns the target HLA-B*46:01. Described as above. The conditions noted are these: source organism: Vibrio antiquarius.
The target of another assay is HLA-A*02:16. The assay is described as above.
The next assay addresses HLA-B*27:03. The assay is described as above. The conditions noted are these: source organism: Vibrio antiquarius.
In a further assay the target is HLA-B*51:01. The description is as above. The note with it: source organism: Vibrio antiquarius.
The target in assay [12] is HLA-A*24:03. The description is as above. The conditions noted are these: source organism: Vibrio antiquarius.
A further assay deals with HLA-B*39:01. Described as above.
Assay [13] has as its target HLA-A*02:01. The assay is described as above.
Assay [14] deals with HLA-A*03:01. Described as above. The note with it: source organism: Vibrio antiquarius.
Another assay deals with HLA-B*44:02. Briefly: IEDB peptide-MHC binding, purified MHC/direct/fluorescence; filed as Kd, often an IC50 or EC50 that approximates it; ≥ and ≤ were set here for values at or beyond the usual limits of such assays.
Assay [15] addresses HLA-A*24:03. Described as above.
For assay [16], the target named is HLA-B*57:01. The description is as above. The conditions noted are these: source organism: Yellow fever virus.
For a further assay, the target named is HLA-B*15:09. The description is as above. The conditions noted are these: source organism: Yellow fever virus.
The target of assay [17] is HLA-B*46:01. Described as above. The conditions noted are these: source organism: Yellow fever virus.
Assay [18] addresses HLA-B*08:01. Briefly: IEDB peptide-MHC binding, purified MHC/competitive/fluorescence; filed as Kd, often an IC50 or EC50 that approximates it; ≥ and ≤ were set here for values at or beyond the usual limits of such assays. The conditions noted are these: source organism: Salmonella enterica subsp. enterica serovar Typhi.
In the next assay the target is HLA-B*08:02. Briefly: IEDB peptide-MHC binding, purified MHC/direct/fluorescence; filed as Kd, often an IC50 or EC50 that approximates it; ≥ and ≤ were set here for values at or beyond the usual limits of such assays. The conditions noted are these: source organism: Escherichia coli O157:H7 str. EC869.
The mark [19] stands for this setting: source organism: Pseudomonas aeruginosa.
Setting [20] is: source organism: Vibrio antiquarius.
Where [21] appears, read: source organism: Yersinia enterocolitica.
Setting [22] is: source organism: Yellow fever virus.
Setting [23] is: source organism: Salmonella enterica subsp. enterica serovar Typhi.
[24] abbreviates: source organism: Pseudomonas aeruginosa UCBPP-PA14.
Where [25] appears, read: source organism: Toxoplasma gondii ME49.

Bounds are passed on as bounds.

In the Immune Epitope Database (IEDB) one finds Kd data, which are given here for 8 sequences.

For orientation: Kd means the free concentration of one partner at which half of the binding sites on the other are occupied at equilibrium, for simple one-to-one binding. Read a low Kd as higher affinity. With DLPPAIAAE, the Kd was ≥ 20 µM with HLA-A*11:01 (setting [19]); 1.95 µM in the assay with HLA-A*26:01 [1] (setting [19]); 12.6 µM with HLA-A*30:01 (setting [19]); ≥ 20 µM with HLA-B*07:02 (setting [19]); ≥ 10 µM with HLA-B*15:01 [2] (setting [19]); ≥ 20 µM in the assay with HLA-B*08:01 [3] (setting [19]). Also, the Kd with HLA-A*69:01 [4] (setting [19]), with HLA-A*01:01 (setting [19]), in the assay with HLA-B*58:01 (setting [19]), with HLA-B*40:01 (setting [19]), with HLA-B*27:05 (setting [19]) and in the assay with HLA-A*02:01 [5] (setting [19]) was ≥ 20 µM each time. The dissociation constant Kd in the assay with HLA-A*31:01 and with HLA-A*03:01 [6] (setting [19]) was ≥ 20 µM each time.

Regarding FDLFGITLY, the Kd with HLA-A*26:01 [7], with HLA-B*57:01 [8], with HLA-A*02:03, in the assay with HLA-B*15:01 [9], in the assay with HLA-A*02:19 and with HLA-A*68:02 was ≥ 20 µM throughout. The Kd was ≥ 20 µM with HLA-A*69:01 [10]; ≥ 20 µM with HLA-A*02:12; 0.279 µM in the assay with HLA-B*18:01; ≥ 20 µM in the assay with HLA-B*46:01 [11]; ≥ 20 µM in the assay with HLA-A*02:16 (setting [20]); ≥ 20 µM with HLA-B*27:03. In addition, the Kd with HLA-B*51:01, in the assay with HLA-A*24:03 [12], in the assay with HLA-B*39:01 (setting [20]), with HLA-A*02:01 [13] (setting [20]) and in the assay with HLA-A*03:01 [14] was ≥ 20 µM throughout.

Take GYGRVNAGK: the Kd with HLA-A*11:01 (setting [21]) was 6.54 µM; in the assay with HLA-A*26:01 [1] (setting [21]) it was ≥ 20 µM; in the assay with HLA-A*30:01 (setting [21]) it was 9.1 µM; with HLA-B*07:02 (setting [21]), ≥ 20 µM; in the assay with HLA-B*15:01 [2] (setting [21]), ≥ 20 µM; with HLA-B*08:01 [3] (setting [21]), ≥ 20 µM. The Kd is ≥ 20 µM in the assay with HLA-A*69:01 [4] (setting [21]); ≥ 20 µM in the assay with HLA-A*01:01 (setting [21]); ≥ 20 µM in the assay with HLA-B*58:01 (setting [21]); ≥ 20 µM with HLA-B*40:01 (setting [21]); ≥ 20 µM in the assay with HLA-B*44:02 (setting [21]); 10.3 µM with HLA-A*24:03 [15] (setting [21]). Also, the Kd with HLA-B*27:05 (setting [21]), with HLA-A*02:01 [5] (setting [21]) and in the assay with HLA-A*03:01 [6] (setting [21]) was ≥ 20 µM throughout.

In the case of IQYVIRAQL, the Kd in the assay with HLA-B*57:01 [16], with HLA-B*15:09, with HLA-A*01:01 (setting [22]), with HLA-B*58:01 (setting [22]), in the assay with HLA-B*46:01 [17] and with HLA-B*44:02 (setting [22]) was ≥ 20 µM in each case. Also, the Kd with HLA-B*27:05 (setting [22]) and with HLA-A*03:01 [6] (setting [22]) was ≥ 20 µM each time.

Take WLMKYPYQL: the Kd was 0.0886 µM with HLA-B*08:01 [18], ≤ 0.001 µM with HLA-B*39:01 (setting [23]) and 0.0002 µM in the assay with HLA-A*02:01 [13] (setting [23]).

The sequence RMKMRRPHL gave a Kd in the assay with HLA-B*08:02 of 2.36 µM.

RTGTRLLGR: the Kd is 0.197 µM with HLA-A*11:01 (setting [19]); ≥ 20 µM with HLA-A*26:01 [1] (setting [24]); 12 µM with HLA-A*30:01 (setting [19]); ≥ 20 µM with HLA-B*07:02 (setting [24]); ≥ 20 µM with HLA-B*15:01 [2] (setting [24]); ≥ 20 µM with HLA-B*08:01 [3] (setting [24]). The Kd with HLA-A*69:01 [4] (setting [24]), with HLA-A*01:01 (setting [24]), in the assay with HLA-B*58:01 (setting [24]), with HLA-B*40:01 (setting [24]), in the assay with HLA-A*24:03 [15] (setting [24]) and in the assay with HLA-B*27:05 (setting [24]) was ≥ 20 µM each time. Further, the Kd was ≥ 20 µM with HLA-A*02:01 [5] (setting [24]), 0.052 µM with HLA-A*31:01 and 0.252 µM in the assay with HLA-A*03:01 [6] (setting [19]).

On to FGGGPWWEV, for which the results for the Kd with HLA-A*02:16 (setting [25]) and with HLA-A*02:01 [13] (setting [25]) were 0.0084 µM and 0.0122 µM, respectively.
